The source of these data is publication PMC12669584.

In the experiment the target is HIV-1 BaL envelope glycoprotein (Env) trimer on AT-2 inactivated virions (HIV-1 (BaL)). As to the kind of experiment: cryo-EM structure.

For “anti-coreceptor binding site (CoRBS) antibody 17b (full IgG)”, the stoichiometry N (17b Abs per Env trimer) was found to be 3.
